Biological target: Monomeric human ACE2 (19-615), Fc tag removed by thrombin (human, UniProt Q9BYF1 19-615)
Test: BLI

Sequence of Monomeric human ACE2 (19-615), Fc tag removed by thrombin (Q9BYF1 19-615): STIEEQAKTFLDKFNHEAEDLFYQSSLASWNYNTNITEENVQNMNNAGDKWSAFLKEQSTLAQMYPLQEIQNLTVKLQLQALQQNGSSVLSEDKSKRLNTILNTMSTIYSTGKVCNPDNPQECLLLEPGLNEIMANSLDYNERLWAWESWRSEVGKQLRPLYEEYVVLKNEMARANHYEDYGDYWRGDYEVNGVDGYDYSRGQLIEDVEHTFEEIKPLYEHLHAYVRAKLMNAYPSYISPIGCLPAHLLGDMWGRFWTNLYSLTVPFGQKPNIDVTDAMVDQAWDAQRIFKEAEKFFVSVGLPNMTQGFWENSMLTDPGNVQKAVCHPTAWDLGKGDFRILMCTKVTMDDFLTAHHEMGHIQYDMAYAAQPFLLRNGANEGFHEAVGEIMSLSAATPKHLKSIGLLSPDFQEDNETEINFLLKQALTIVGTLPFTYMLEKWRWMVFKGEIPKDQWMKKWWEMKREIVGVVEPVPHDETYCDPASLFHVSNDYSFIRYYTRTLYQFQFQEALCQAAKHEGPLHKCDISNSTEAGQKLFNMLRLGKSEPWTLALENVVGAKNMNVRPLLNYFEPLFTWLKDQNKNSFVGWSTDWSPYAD

B1: SARS-CoV-1 RBD (306-575), mammalian-expressed, purified (domain or fragment)
chain: not shown
- Kd: 575 nM
